In patent US20070014736A1, “Methods of delivering corticotroph-derived glycoprotein hormone” (priority 2005, published 2007):

What was measured:
TSHR = experiment: Binding of 125I-CGH and 125I-TSH to BHK cells expressing the TSHR; parameters: species or system murine or human; settings: increasing amounts of unlabeled protein
Experimental: BHK cells expressing murine or human TSHRs were cultured in Dulbecco's Modified Eagle's Medium [DMEM (high glucose)] containing 5% fetal bovine serum, 1% Glutamax, 1% sodium pyruvate, 250 nM methotrexate, and Geneticin ( 1/100). […] Plates of cells were placed on ice and washed twice with 1.0-2.0 ml of ice-cold PBS. […] Specific binding was determined in the presence (nonspecific binding) and absence (total binding) of unlabeled rhCGH (25.0 μg/ml) or TSH (10 μg/ml). Binding reactions were terminated by removing the binding medium and the cell monolayers were washed three times with 1.0-2.0 ml of ice-cold PBS containing 1.0 mg/ml BSA and twice with 1.0-2.0 ml of ice cold albumin-free PBS. Cells were solubilized in 1.0 ml of 1.0N NaOH for 10 min at room temperature and cell-associated radioactivity was determined in a gamma counter. The measured radioactivity was normalized to cell number that was determined on plates of cells cultured in parallel. Binding data were analyzed by non-linear regression using Prizm 3.0 (GraphPad Software, San Diego, Calif.).

obese male ob/ob mice = experiment: Chronic 28-day treatment of ob/ob mice; format: in vivo
Experimental: Summary: CGH was administered daily for 28 days to obese male ob/ob mice. Mice were also treated with vehicle saline and thyroxine. Data was obtained for food intake, blood glucose, serum insulin, serum lipids, and serum thyroid hormone levels. At sacrifice, animals were examined for changes in liver pathology, and gross histology. […] Evaluation of liver histology sections was performed to examine the effect of CGH-mediated lipolysis on liver steatosis.
11-week old male ob/ob mice were individually caged and given a standard lab chow (4% fat) with free access to food and water. Animals were assigned to a treatment group (n=7−8, average weight 54.3±0.3 g/group), kept on a 12 hour dark cycle (6 PM to 6 AM), and injected each day between 7 and 9 AM. Chow consumed by each animal was weighed twice weekly. All animals received treatments IP in an injection volume of 0.1 ml. CGH was administered at 250 μg/kg, dissolved in sterile saline. Thyroxine (T4) was administered at 1.5 μg/mouse for 4 days, reduced to 1 μg/mouse for 10 days, and returned to 1.5 μg/mouse for the next 14 days. The vehicle controls received sterile saline. TSH was obtained from Genzyme Pharmaceuticals (Thyrogen®, Catalog number 36778; Genzyme Corporation, Cambridge, Mass.), and T4 obtained from Calbiochem, Inc. (EMD Biosciences, catalog number 61205, San Diego, Calif.) All blood draws were performed by retro-orbital puncture under isoflurane anesthesia.
After 25 days of treatment as described above, blood was sampled from all treated animals, serum separated, and analyzed for total T4 by a commercially available kit (Biocheck, Burlingame, Calif.). After 25 days of treatment, the vehicle T4 levels were 5.14±0.08 μg/dl. The CGH-treated group had T4 levels of 7.25±1.2 μg/dl, and the thyroxine-treated group had T4 levels of 9.04±0.47 μg/dl.
Subject animals were fasted for 4 hours at the beginning of the light cycle, and serum was obtained at treatment day 25 under isoflurane anesthesia. Serum Glucose levels were determined with the Cholestech LDX blood analyzer (Cholestech Corporation, Hayward Calif.), and serum insulin levels by ELISA. Serum glucose levels for vehicle and thyroxine treated groups were 306±22 and 295±23 mg/dl, respectively. […] Serum insulin levels for the vehicle and thyroxine treated groups were 33.5±1.8 and 25.9±1.7 ng/ml, respectively.
Subject animals were fasted for 4 hours at the beginning of the light cycle, and serum was obtained at treatment day 25 under isoflurane anesthesia. Triglyceride and total cholesterol levels were determined with the Cholestech LDX blood analyzer. Serum triglyceride levels for the vehicle controls were 143.7±23 mg/dl. […] Total cholesterol levels in the vehicle-treated and thyroxine-treated groups were 198±13 and 194±15 mg/dl, respectively.
Liver sections were dissected from all treatment groups described above and mounted in paraffin following fixation with NBS-formalin. Sections were mounted and stained with hematotoxylin and eosin (H&E) for visualization of hepatic structural changes. The extent of liver steatosis was evaluated on a four-point scale, from 0 to 3, with zero displaying no signs of liver steatosis, and a […], represented pronounced macrovesicular and microvesicular steatosis. […] Average scores given to the groups were vehicle (4), thyroxine (3), and CGH (1.5). […] The CGH treated sections appear to have regained hallmarks of normal hepatocyte architecture in only 28 days of treatment, with areas containing hepatocytes without lipid-laden inclusions in the cytoplasm of the cell.

B1: CGH: heterodimeric protein hormone comprised of alpha subunit GPHA2 and beta subunit GPHB5, recombinantly produced in CHO cells (protein)
chain 1: QEAVIPGCHLHPFNVTVRSDRQGTCQGSHVAQACVGHCESSAFPSRYSVLVASGYRHNITSVSQCCTISGLKKVKVQLQCVGSRREELEIFTARACQCDMCRLSRY
chain 2: ASSGNLRTFVGCAVREFTFLAKKPGCRGLRITTDACWGRCETWEKPILEPPYIEAHHRVCTYNETKQVTVKLPNCAPGVDPFYTYPVAIRCDCGACSTATTECETI
TSHR
  reduction of the amount of 125I-CGH bound by unlabeled competitor: reduced the amount of ^125I-CGH bound
Obese male ob/ob mice; H&E liver sections, 28 days, n=4
  liver steatosis average score: 1.5
Obese male ob/ob mice; after 25 days of treatment
  serum total T4 levels: 7.25 ± 1.2 µg/dL
Obese male ob/ob mice; day 25, fasted 4 hours
  Serum glucose levels: 251 ± 10 mg/dL
  Serum insulin levels: 14.2 ± 3.6 ng/mL
  Serum triglyceride levels: 100 ± 14.7 mg/dL
  Total cholesterol levels: 104 ± 8.8 mg/dL
Obese male ob/ob mice; ob/ob mice, CGH 250 μg/kg IP daily, T4 1-1.5 μg/mouse
  Food intake: 6.3±0.09 grams/day of chow
